For six substances, Kd results are on record in paper PMC6125642.

pKd: −log10 of the molar value.

The experiment deals with FITC-labeled aP-C18 peptide (not stated (P. horikoshii and P. furiosus aP1 were both used)). The experiment can be described thus: fluorescence polarisation. On the technique in general: In fluorescence polarisation assays a small probe gives low polarisation when free and higher when bound to something large.
Turning to aABCE1 A223S (enzyme), the pKd (commonly −log10 of the Kd, conventionally taken in molar units) is 4.33. Take aABCE1 I170S (enzyme): the pKd was 4.17. This pKd and that of the substance before are within 0.2 log units of each other. Under aABCE1 R227A (enzyme) stands 4.51; under aABCE1 V174S (enzyme), 4.08; under aABCE1 V219S (enzyme), 5.20.

With aABCE1-ΔN74 (domain or fragment), the pKd was 5.36.
